Assay results from patent US20210292423A1 (published 2021).
Numbering of substitutions follows the chain as printed.

B1: 11F9-F8 anti-CD3 antibody (hybridoma supernatant) (antibody, V domains shown)
VH: EVQLVETGGTLVQPGKSLKLTCATSGFTFSNAWMHWVRQSPEKQLEWVAQIKAKSNNYATYYAESVKGRFTISRDDSKTSVYLQLNSLREEDTAIYYCRGTQYGYNPFDYWGQGVMVTVSS
VL: DVVLTQTPVSLSVSLGGQVSISCRSSQSLVHNNGNTYLSWSLQKPGQSPQVLIYKVSNRFSGISNRFSGSGSGTDFTLKISRVEPDDLGVYYCGQGAHYPFTFGSGTKLEIK
notes: rat IgG in hybridoma supernatant
B2: 4B4-D7 anti-CD3 antibody (hybridoma supernatant) (antibody, V domains shown)
VH: EVQLVETGGRLVQPGRSLKLTCATSGFTFSNAWMHWVRQSPEKQLEWVAQIKARSNNYATYYAESVKGRFTISRDDSKSTIYLQMNSLKEEDTAIYYCRGTYYASKPFDYWGQGVMVTVSS
VL: B1 VL with L4M, N32D, K44R, I63T, N65D, S68T, A97T, H98Q
notes: as for B1
B3: 12G3-E8 anti-CD3 antibody (hybridoma supernatant) (antibody, V domains shown)
VH: EVRVVETGGSLVQPGKSLKLTCATSGFTFSLAWMHWVRQSPEKKLEWVAQIKDKANNYATYYAESVKGRFTISRDDSKRSVYLQMNRLKEEDTAIYYCRGVYYGFSMTPFDYWGQGVMVTVSS
VL: B1 VL with V3A, L4M, S41Y, N65D, T74A, A97T, H98Q, S105A, I111L
notes: as for B1
B4: 11F3-B9 anti-CD3 antibody (hybridoma supernatant) (antibody, V domains shown)
VH: EVQLVETGGSLVQPGKSLTLTCATSGFTFSNAWMHWVRQSPEKQLEWVAQIKAKSNNYATYYAESVKGRFTISRDDSKRSVYLQMNSLKEEDTAIYYCRYVNYGLAPMDVWGQGTSVTVSS
VL: B1 VL with L4M, N32D, S41Y, V51L, I63F, N65D, A97T, H98Q, S105A, I111L
notes: as for B1
B5: 10F4-C10 anti-CD3 antibody (hybridoma supernatant) (antibody, V domains shown)
VH: EVQLVETGGSLVQPGKSLKITCATSGFTFSNAWMHWVRQSPEKQLEWVAQIKAKSNNYATYYAESVKGRFTISRDDSKSSIYLQMNSLKEEDTAIYYCRAVNYGNYPLDYWGQGVMVTVSS
VL: B1 VL with L4M, S41C, V51L, N65D, A97T, H98Q, S105A, I111L
notes: as for B1
B6: 4E7-C9 anti-CD3 antibody (hybridoma supernatant) (antibody, V domains shown)
VH: EVQVVETGGSLVQPGKSLKLTCATSGFTFSNAWMHWVRQSPEKQLEWVAQIKDKSNNYATYYAESLKGRFTISRDDPKRSIYLQMNSLREEDTAIYYCRYVHYGIGYAMDAWGQGTSVTVSS
VL: B1 VL with L4M, V30E, S41Y, V51P, N65D, A97T, H98Q, S105P, I111L
notes: as for B1
B7: 11D7-C3 anti-CD3 antibody (hybridoma supernatant) (antibody, V domains shown)
VH: B5 VH with L4F, I20L, I81V, I95T, A100G, V101L, N102Y, N105L, Y106S, L108S
VL: B1 VL with L4M, S41Y, V51L, N65D, A97T
notes: as for B1
B8: 10E6-G6 anti-CD3 antibody (hybridoma supernatant) (antibody, V domains shown)
VH: B1 VH with T10G, P14S, F29V, S30T, A59E, T79S, L85M, R89K
VL: B1 VL with L4M, T7S, N35Y, S41Y, L52F, N65D, V83I, A97T
notes: as for B1
B9: 13C1-F6 anti-CD3 antibody (hybridoma supernatant) (antibody, V domains shown)
VH: B1 VH
VL: DVVMTQSPVSLSVSLGGQVSISCRSSQSLVHNNGNTYLSWYLQRSGQSPQLLIYKVSNRLSGISDRFSGSGSGTDFTLKISRIEPDDLGVYYCGQGTQYPFTFGSGTRLEIK
notes: as for B1
B10: 13H2-C3 anti-CD3 antibody (hybridoma supernatant) (antibody, V domains shown)
VH: B4 VH with V2E, Q3E, T19K, E42D, R79S, S87N, N102H, V110A
VL: B9 VL with S7T, R44K, S45A, L60F, T77I, I83V, Y91F, S105A, R108K, I111L
notes: rat IgG in hybridoma supernatant; also called 13H2-C2
B11: 6C9-C9 anti-CD3 antibody (hybridoma supernatant) (antibody, V domains shown)
VH: AVQLVESGGGLVRPKESLKISCAASGFTFRNAAMYWVRQAPGKGLEWVARIRTQPNNYAKYYADSVKDRFTISRDDSKSMVYLQMDNLKTEDTAMYYCTGLVVTAMDAWGQGTSVTVSS
VL: DIQMTQSPSFLSASVGDRVTINCKASQNINKYLNWYQQKLGEAPKLLIYVTNNLQTGIPSRFSGSGSGTDYTLTISSLQPEDVATYFCLQHRSMYTFGTGTKLELK
notes: as for B1
B12: 18H11-F10 anti-CD3 antibody (hybridoma supernatant) (antibody, V domains shown)
VH: EVQLVESGGGLVQPGRSLKLSCAASGFIFSDYYMAWVRQAPKKGLEWVATISISGSRTYYPDSVKGRFTVSRDNAKSSLYLQMNSLKSEDTATYYCATNNPGGWFVYWGQGTLVTVSS
VL: NIQMTQSPSLLSASVGDRVTLSCKAGQNINNDLAWYQQKLGEAPRLLIYNANSLQTGIPSRFSGSGSGADFTLTISSLQPEDVATYFCQQYSSGDTFGAGTKLELK
notes: as for B1
B13: 8H2-F3 anti-CD3 antibody (hybridoma supernatant) (antibody, V domains shown)
VH: QIQLVQSGPELKKPGESVKISCKASGYTFTDFAMNWVKQAPGNGLKWMGWINTQTGKPTYADGFKQRFVFSLETSASTIYLQINNLNIEDTATYFCTRGALASVGQGVMVTVSS
VL: DVVMTQTPVSLSVAIGQPASISCKSSQSLVGTSGKTYLNWLLQRPGQSPKRLIYLVSKLDSGIPDRFSGSGSETDFTLKISRVETDDLGVYYCLQGSHFPLTFGSGTKLEIK
notes: as for B1
B14: CODV-Fab 7G3 × 20G6 with humanized 20G6 VL1B_VH1A (bispecific antibody)
light: DIVMTQTPLSLSVTPGQPASISCKSSQSLVHNNGNTYLSWYLQKPGQSPQLLIYKVSNRFSGVPDRFSGSGSGTDFTLKISRVEAEDVGVYYCGQGTQYPFTFGGGTKVEIKGQPKAAPDFVMTQSPSSLTVTAGEKVTMSCKSSQSLLNSGNQKNYLTWYLQKPGQPPKLLIYWASTRESGVPDRFTGSGSGTDFTLTISSVQAEDLAVYYCQNDYSYPYTFGGGTKLEIKTKGPSRTVAAPSVFIFPPSDEQLKSGTASVVCLLNNFYPREAKVQWKVDNALQSGNSQESVTEQDSKDSTYSLSSTLTLSKADYEKHKVYACEVTHQGLSSPVTKSFNRGEC
heavy: EVQLQQSGPELVKPGASVKMSCKASGYTFTDYYMKWVKQSHGKSLEWIGDIIPSNGATFYNQKFKGKATLTVDRSSSTAYMHLNSLTSEDSAVYYCTRSHLLRASWFAYWGQGTLVTVSASQVQLVESGGGVVQPGRSLRLSCAASGFTFTKAWMHWVRQAPGKGLEWVAQIKDKSNSYATYYADSVKGRFTISRDNSKNTLYLQMNSLRAEDTAVYYCRGVYYALSPFDYWGQGTLVTVSSRTASTKGPSVFPLAPSSKSTSGGTAALGCLVKDYFPEPVTVSWNSGALTSGVHTFPAVLQSSGLYSLSSVVTVPSSSLGTQTYICNVNHKPSNTKVDKKVEPKSCDKTHTHHHHHH
B15: CODV-Fab 7G3 × 20G6 with humanized 20G6 VL1D_VH1C (bispecific antibody)
light: B14 light with L51S, G105S
heavy: B14 heavy with G165Q, D185A, N197D
B16: CODV-Fab 7G3 × 20G6 with humanized 20G6 VL1D_VH1D (bispecific antibody)
light: B14 light with L51S, G105S
heavy: B14 heavy with G165Q, N197D
notes: same V domains as hz20G6x7G3 but the other order
B17: CODV-Fab 7G3 × 20G6 with humanized 20G6 VL1C_VH1D (bispecific antibody)
light: B14 light with G34A, L51S, G105S
heavy: B14 heavy with G165Q, N197D

biological target: T1, human CD3ε/δ-Fc fusion protein (soluble recombinant CD3ε/δ complex) (human, UniProt P04234 22-105); experiment: SPR single point, hybridoma supernatant
T1 construct: also called huCD3ε/δ; huCD3; not shown: hinge, CH2, CH3 of human IgG with tag
T1 sequence (chain, as listed by the source mutant, chain 1 of 2): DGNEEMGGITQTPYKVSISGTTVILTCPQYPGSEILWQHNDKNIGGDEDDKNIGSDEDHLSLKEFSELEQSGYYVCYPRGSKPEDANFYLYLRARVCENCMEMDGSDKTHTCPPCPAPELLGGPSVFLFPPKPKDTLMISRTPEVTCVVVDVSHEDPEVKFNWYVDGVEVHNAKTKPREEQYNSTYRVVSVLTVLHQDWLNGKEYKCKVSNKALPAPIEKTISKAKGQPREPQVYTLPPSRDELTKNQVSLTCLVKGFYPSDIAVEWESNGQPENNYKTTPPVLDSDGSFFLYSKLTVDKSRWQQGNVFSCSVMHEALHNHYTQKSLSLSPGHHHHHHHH
T1 sequence (P04234 22-105, stated change not applied, chain 2 of 2): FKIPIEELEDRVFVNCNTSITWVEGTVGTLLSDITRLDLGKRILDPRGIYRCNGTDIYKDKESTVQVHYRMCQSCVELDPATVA
Method: Rats with positive sera were scarified and B cells were fused with mouse myeloma cells. The resulting hybrndomas were screened on HEK293 cells transfected with human or cynomoligus CD3ε and CD3δ expression plasmids, on Jurkat E6.1 (CD3+) and Jurkat T3.5 (CD3-) by flow cytometry. Supernatant of Hybridoma clones was used to assess by surface plasmon resonance single point kinetic against human and Macaca fascicularis CD3ε/δ complex by fixing the analyte at 25 nM (data presented in table 3).

RU at 25 nM [RU] | Binder
11.5 | B1
11 | B2
24 | B3
22 | B4
22 | B5
2.5 | B6
17 | B7
10.5 | B8
17 | B9
16 | B10
26 | B11
35 | B12
32.5 | B13

biological target: T1, human CD3ε/δ-Fc fusion protein (soluble …); experiment: SPR Biacore, CODV-Fab on recombinant CD3ε/δ
Method: Binding affinities of anti-CD3 binding Fabs or CODV-Fabs were measured by surface plasmon resonance (SPR) using a Biacore3000 instrument (GE Healthcare). Assay buffer was HBS-EP (BR-1001-88, GE Healthcare). Capture of CD3ε/δ-Fc fusion proteins was achieved using the human antibody capture kit (GE Healthcare). […] The CD3εδ-Fc fusions proteins were captured at 10 μl/min to approx. 70 RU to yield Rmax values of 30 RU. Binding kinetics with the anti-CD3 Fabs or CODV-Fabs was measured at 30 μl/min for 240 sec. and 600 sec. for association and dissociation phase, respectively. Twofold dilutions of Fabs from 3 to 400 nM in assay buffer were used. All Fab concentrations were run in duplicate together with duplicate buffer blanks for double referencing. Regeneration of the capture surface was performed with a 1 min injection of 3M MgCl2 solution at 30 μl/min. For data analysis the BIAevaluation software v.4.1 (GE Healthcare) was used. Data were fit globally using a 1:1 Langmuir model with mass transfer.

Kd [nM] | koff [s⁻¹] | kon [M⁻¹ s⁻¹] | Binder
138 | 0.00414 | 29900 | B14
32.1 | 0.000713 | 22200 | B15
31 | 0.000746 | 24000 | B16
44 | 0.00101 | 23000 | B17
